According to the supplement of paper PMC12042874:
± gives the uncertainty stated by the source.

test: amyloid nucleation score (Sup35N fusion, yeast selection) (log enrichment); library NNK1; higher = more nucleation; inactive = no reads after selection
Summary of the method: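 Sup35N was fused to peptides of 20 random codons and expressed in psi-negative yeast, which were induced with 100 μM copper sulfate for 24 hours and then grown on medium lacking adenine and uracil for 7 days at 30°C. Plasmid inserts from input and output were sequenced on Illumina. The nucleation score is the DiMSum log enrichment of output over input reads, centred on the mode score of non-aggregating sequences. Sequences with under 100 input reads were left out, and random libraries had three technical output replicates.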

| Substance | amyloid nucleation score |
| --- | --- |
| LMLERFRLLYNEDFGGKVMF | 0.448 ± 0.47 |
| MGILW | -0.328 ± 0.66 |
| VRGSVRCNVDYLICVYVHR | 1.46 ± 0.51 |
| SMMEAFDPKYAVSWSVESLT | 1.26 ± 0.67 |
| HYGVDEAFGRWDGVLMCQKV | -0.134 ± 0.4 |
| LHCYFAFDLLWIALRTTVRI | -0.457 ± 1 |
| TDIFSNISYQSGQPATIDYH | 0.176 ± 0.69 |
| YMPRSQIGSTSHVNWREMAE | -0.311 ± 0.33 |
| ASLLSGQK | 0.358 ± 1.1 |
| HGALMNNWDLKACFC | -0.786 ± 0.41 |
| SEAVCVRVQLAWDRLMGVRV | 0.966 ± 0.64 |
| HWLTV | -1.27 ± 1.6 |
| LSKCTKRKFTMCWDSLVRK | 0.779 ± 0.26 |
| YTSIGI | -0.144 ± 0.45 |
| IYLNFLPVVPCRFFCIRTWG | inactive |
| CYHSKFAVAYQSRICWPWRD | 1.26 ± 0.67 |
| LTVVTAAFRATMVEHIL | -0.368 ± 0.4 |
| GRARVSIRSWSRSWSVGRVL | 0.309 ± 0.63 |
| FMNGLGPAVAYIMGYTYVSM | 6.369 ± 0.063 |
| GLTCMHPWWLSHAEKRLVEL | 1.05 ± 0.49 |
| STYSSWQDTRVFNLAMLSI | -0.68 ± 0.85 |
| EYVVRYSCMWRE | 0.485 ± 1.2 |

| Substance | amyloid nucleation score |
| --- | --- |
| AWYWAMAIMRVSIKVWPLLL | -0.713 ± 0.7 |
| DWVPLKSHISWLSVTRVLIV | 0.636 ± 0.46 |
| VQDLYCIRYL | -1.39 ± 2.4 |
| KYLFFMVFQWS | 0.439 ± 0.84 |
| QRLGQGIGGEWPTKL | 0.995 ± 0.67 |
| IYVYQLSFCCKAY | 0.235 ± 0.66 |
| LDVSTRQRLVGVD | -0.2 ± 0.61 |
| RRAPLNLTREVSSVWEWRII | -0.631 ± 0.68 |
| GIHNFEGGMTLWLLLFSQRS | 0.24 ± 1.2 |
| GTSSGLV | 0.104 ± 1.1 |
| LGGFYTRRCVCSLGTRQERE | -0.072 ± 0.49 |
| LYKDGQGSKEAIVSRVDCMS | 0.892 ± 0.25 |
| ERRLTTFCCMWANLGVADGT | 0.436 ± 1 |
| VVLQVMFARAWWFF | 0.185 ± 0.33 |
| GFARLLLRRVHRAIISHFRF | -0.617 ± 0.45 |
| STVLATFHVE | 0.041 ± 0.37 |
| DFFLIFWWDSFSAGVCQMNS | 0.356 ± 0.51 |
| GGVFMMSSDSTQIIRYVKSR | 0.752 ± 0.56 |
| MWAAGDNHYSNKVLSLAMVV | 0.501 ± 1 |
| ISEVFD | -0.237 ± 0.24 |
| LFVGRGIAFVSFGPLALS | 3.83 ± 0.08 |
| HMWYFRYGHEWSRTYNKCIK | -0.02 ± 0.72 |

| Substance | amyloid nucleation score |
| --- | --- |
| ILLMSNYYAVRQEEFDQLPV | inactive |
| YILSISYYFPRGMVDIVMFM | 0.5 ± 0.48 |
| SQRSMRRRRVRVIKDARYNW | 0.224 ± 0.48 |
| IALSTYCRNTDSPSSSGSCY | -0.245 ± 0.77 |
| LRNVVSYREDFECSWGCHRG | 0.724 ± 0.32 |
| LRHFSRSF | 0.16 ± 0.29 |
| VSQTPWTLYLN | 0.229 ± 0.26 |
| YSGRVTLWIVPMLHARH | -0.114 ± 0.42 |
| KLMLLLSNSMNQRSDYPRFQ | -0.327 ± 0.44 |
| VTQSYDFKSLQIISIQN | 1.39 ± 0.12 |
| GVMSTDPFLTLYTVLVGVLI | inactive |
| QDFVMSYLCRLKGWLDKRYR | 0.472 ± 0.25 |
| FIVFISFSFWRVTGIR | -0.139 ± 0.59 |
| YFYDILGCDWKALSGRLIDT | -0.603 ± 0.25 |
| YVLFFSPCT | inactive |
| SLLIELSFRTGNSEY | 0.152 ± 0.5 |
| GLFKICYLVT | 0.408 ± 0.34 |
| LMSYSECQLSLNAYRGGRVE | 0.373 ± 0.55 |
| LRVKSSGDLSLSGSFDCDV | 0.199 ± 0.64 |
| LYCNVISILACFVTTIRGRG | 3.64 ± 0.16 |
| RVGWMLNGAGALWFFRYKLN | -0.256 ± 0.7 |
| LLSPFCVVLGSSTTGTMVNM | 0.287 ± 0.62 |

| Substance | amyloid nucleation score |
| --- | --- |
| MQSMQL | inactive |
| MQFCVEYTRPVRYQLWGSLM | 0.327 ± 0.83 |
| ENCFSCNEYCERYSPALCGQ | inactive |
| ARFRYVESSRQMSMNVVCLT | 0.194 ± 0.38 |
| GDFLIPRARDQFYRFSGFND | 0.863 ± 0.46 |
| FPDGEYPMTYTLWELKYVFV | -0.487 ± 0.65 |
| LCFCVKVS | inactive |
| GIRFLWPFLIPRLHKVIARR | inactive |
| ENERMTLHCGYFKNMCMFRF | 1.9 ± 0.22 |
| PDNRAINVFTLPVAVS | 0.71 ± 0.44 |
| IVNAKLSWSYPGIIRLCHCE | 0.43 ± 0.28 |
| TSFGYLLVSRNWCNSWCIMS | 3.01 ± 0.079 |
| VCYSLSLNISFSFRNVVVRS | 0.899 ± 0.58 |
| QLTPTLCDRSRCCPGGLFVY | 0.631 ± 0.58 |
| RCKLLIIVIRKDTCLKYCGH | 0.308 ± 0.32 |
| RFFMTHSYELYLEFRGAARR | 1.28 ± 0.42 |
| TCQFFRLSNRILQGDYSILM | -0.342 ± 0.48 |
| LQYAKRDDIDSDVLLYKMYG | 0.203 ± 0.97 |
| TLGTSGTSSV | -0.544 ± 0.49 |
